Here are results for one substance from article PMC12329532.

The target in the assay is N-terminally His6-tagged human IDO1 (indoleamine 2,3-dioxygenase 1), purified apo-IDO1 (human) (UniProt P14902).
Sequence of N-terminally His6-tagged human IDO1 (indoleamine 2,3-dioxygenase 1), purified apo-IDO1 (human) (P14902 whole entry): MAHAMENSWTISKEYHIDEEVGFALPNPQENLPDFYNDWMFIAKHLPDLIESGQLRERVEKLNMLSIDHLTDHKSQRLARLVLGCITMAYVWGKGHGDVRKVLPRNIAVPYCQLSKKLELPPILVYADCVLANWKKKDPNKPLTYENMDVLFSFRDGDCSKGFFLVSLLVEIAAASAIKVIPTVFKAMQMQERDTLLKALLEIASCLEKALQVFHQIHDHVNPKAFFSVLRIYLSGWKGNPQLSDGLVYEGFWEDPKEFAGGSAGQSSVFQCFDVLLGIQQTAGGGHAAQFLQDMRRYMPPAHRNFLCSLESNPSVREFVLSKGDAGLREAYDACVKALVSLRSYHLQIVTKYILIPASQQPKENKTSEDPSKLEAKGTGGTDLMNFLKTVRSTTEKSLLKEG

As for “human recombinant TC-GAPDH (GAPDH with a tetra-Cys insertion sequence near its heme binding site), wild type, purified (from UniProt P04406 1-335) (enzyme)”, the IDO1 catalytic activity after the heme transfer reaction with the TC-GAPDH-heme complex amounted to 2 fold; the decrease in heme content of TC-GAPDH (UV-vis) after 30 min at 37 °C with apo-IDO1 and separation by gel filtration was determined as 50%.
